Measurements reported in PMC2756588.

T1: Abp1, P15891
T1 sequence (P15891 535-592, looked up): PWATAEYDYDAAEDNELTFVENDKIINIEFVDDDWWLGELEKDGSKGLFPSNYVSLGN

T2: Myo5, Q04439
T2 sequence (Q04439 1072-1160, looked up): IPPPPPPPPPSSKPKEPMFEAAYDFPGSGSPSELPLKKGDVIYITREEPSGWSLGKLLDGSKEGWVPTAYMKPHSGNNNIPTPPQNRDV

T3: Boi1, P38041
T3 sequence (P38041 1-86, looked up): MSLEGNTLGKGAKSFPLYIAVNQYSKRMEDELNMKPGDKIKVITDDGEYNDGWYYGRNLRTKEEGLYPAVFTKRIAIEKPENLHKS

T4: Bzz1-1, P38822
T4 sequence (P38822 478-572, looked up): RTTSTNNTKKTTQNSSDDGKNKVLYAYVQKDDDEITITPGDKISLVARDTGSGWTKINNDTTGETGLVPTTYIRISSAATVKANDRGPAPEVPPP

T5: Hof1, Q05080
T5 sequence (Q05080 590-669, looked up): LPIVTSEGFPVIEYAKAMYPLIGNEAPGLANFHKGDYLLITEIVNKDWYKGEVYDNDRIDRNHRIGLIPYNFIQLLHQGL

T6: Lsb4, P32793
T6 sequence (P32793 402-468, looked up): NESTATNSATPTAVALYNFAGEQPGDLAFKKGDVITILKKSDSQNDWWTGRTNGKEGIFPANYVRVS

T7: Cdc25, P04821
T7 sequence (P04821 50-136, looked up): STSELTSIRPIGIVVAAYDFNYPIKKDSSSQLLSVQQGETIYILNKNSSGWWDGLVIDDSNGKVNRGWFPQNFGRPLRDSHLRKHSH

T8: Bbc1, P47068
T8 sequence (P47068 1-78, looked up): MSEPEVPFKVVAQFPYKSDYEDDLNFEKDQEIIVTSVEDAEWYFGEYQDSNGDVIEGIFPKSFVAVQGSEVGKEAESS

T9: Cyk3, Q07533
T9 sequence (Q07533 1-83, looked up): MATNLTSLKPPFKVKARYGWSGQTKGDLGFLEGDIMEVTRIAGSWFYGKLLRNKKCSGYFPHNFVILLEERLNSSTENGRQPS

T10: Hse1, P38753
T10 sequence (P38753 208-285, looked up): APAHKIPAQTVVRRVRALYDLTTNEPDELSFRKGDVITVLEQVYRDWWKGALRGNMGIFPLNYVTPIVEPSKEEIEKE

T11: Lsb3, P43603
T11 sequence (P43603 385-451, looked up): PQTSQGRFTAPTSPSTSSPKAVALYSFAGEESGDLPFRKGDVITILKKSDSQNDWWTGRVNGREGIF

T12: Sla1-2, P32790
T12 sequence (P32790 60-140, looked up): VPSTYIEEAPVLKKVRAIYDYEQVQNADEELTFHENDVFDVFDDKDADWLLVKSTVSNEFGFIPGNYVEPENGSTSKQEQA

T13: Bzz1-2, P38822
T13 sequence (P38822 568-633, looked up): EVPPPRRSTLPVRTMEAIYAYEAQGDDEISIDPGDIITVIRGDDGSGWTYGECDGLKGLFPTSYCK

T14: Sla1-3, P32790
T14 sequence (P32790 344-424, looked up): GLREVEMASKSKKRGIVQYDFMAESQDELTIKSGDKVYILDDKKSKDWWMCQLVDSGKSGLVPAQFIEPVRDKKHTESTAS

T15: Fus1, P11710
T15 sequence (P11710 432-512, looked up): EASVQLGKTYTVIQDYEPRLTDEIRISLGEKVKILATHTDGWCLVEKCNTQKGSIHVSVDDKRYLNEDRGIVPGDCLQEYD

T16: Nbp2, Q12163
T16 sequence (Q12163 103-180, looked up): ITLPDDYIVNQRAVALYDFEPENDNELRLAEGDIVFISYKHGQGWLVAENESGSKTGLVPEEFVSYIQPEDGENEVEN

T17: Boi2, P39969
T17 sequence (P39969 32-116, looked up): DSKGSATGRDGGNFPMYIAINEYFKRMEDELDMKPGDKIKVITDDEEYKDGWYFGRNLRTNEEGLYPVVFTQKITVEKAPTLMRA

T18: Bud14, P27637
T18 sequence (P27637 247-328, looked up): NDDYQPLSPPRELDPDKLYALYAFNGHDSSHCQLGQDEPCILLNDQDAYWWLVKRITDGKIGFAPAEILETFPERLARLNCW

T19: Pex13, P80667
T19 sequence (P80667 295-386, looked up): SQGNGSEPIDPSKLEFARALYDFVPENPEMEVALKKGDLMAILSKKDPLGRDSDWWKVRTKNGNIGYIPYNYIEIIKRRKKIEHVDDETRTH

T20: Lsb1, P53281
T20 sequence (P53281 45-122, looked up): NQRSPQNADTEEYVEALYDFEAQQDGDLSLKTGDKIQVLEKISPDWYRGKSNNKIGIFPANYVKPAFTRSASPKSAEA

T21: Pin3, Q06449
T21 sequence (Q06449 53-122, looked up): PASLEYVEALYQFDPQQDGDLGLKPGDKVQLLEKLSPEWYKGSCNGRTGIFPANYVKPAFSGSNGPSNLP


What follows are binders tested against Myo3, P36006 (assay: SPOT array). Details: median of control spots 468.

In order of rising SPOT intensity:
1. IRMPSNPALPKKLLN  72
2. AHFQPQRTAPKPPIS  413

The binders below were run against T1, Abp1, P15891 (assay: SPOT array). Details: median of control spots 935.

In order of falling SPOT intensity:
1. IRMPSNPALPKKLLN  231
2. AHFQPQRTAPKPPIS  19

These binders were tested against T2, Myo5, Q04439 (assay: SPOT array). Details: median of control spots 471.

In order of rising SPOT intensity:
1. IRMPSNPALPKKLLN  81
2. AHFQPQRTAPKPPIS  104

What follows are binders tested against Bem1-2, P29366 (assay: SPOT array). Details: median of control spots 4347.
Chain of Bem1-2, P29366 (P29366 139-227): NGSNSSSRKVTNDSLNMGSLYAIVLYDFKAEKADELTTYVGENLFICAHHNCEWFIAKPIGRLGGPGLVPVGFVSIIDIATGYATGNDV

In order of rising SPOT intensity:
1. IRMPSNPALPKKLLN  0
2. AHFQPQRTAPKPPIS  1860

What follows are binders tested against T3, Boi1, P38041 (assay: SPOT array). Details: median of control spots 1162.

In order of rising SPOT intensity:
1. AHFQPQRTAPKPPIS  0
2. IRMPSNPALPKKLLN  0

These binders were tested against T4, Bzz1-1, P38822 (assay: SPOT array). Details: median of control spots 4446.

In order of rising SPOT intensity:
1. IRMPSNPALPKKLLN  0
2. AHFQPQRTAPKPPIS  1

Each binder was assayed against T5, Hof1, Q05080 (assay: SPOT array). Details: median of control spots 4086.

In order of falling SPOT intensity:
1. IRMPSNPALPKKLLN  6
2. AHFQPQRTAPKPPIS  0

What follows are binders tested against T6, Lsb4, P32793 (assay: SPOT array). Details: median of control spots 397.

In order of rising SPOT intensity:
1. AHFQPQRTAPKPPIS  4
2. IRMPSNPALPKKLLN  56

Each binder was assayed against T7, Cdc25, P04821 (assay: SPOT array). Details: median of control spots 969.

In order of rising SPOT intensity:
1. IRMPSNPALPKKLLN  4
2. AHFQPQRTAPKPPIS  5

These binders were tested against T8, Bbc1, P47068 (assay: SPOT array). Details: median of control spots 796.

In order of rising SPOT intensity:
1. IRMPSNPALPKKLLN  2
2. AHFQPQRTAPKPPIS  101

The binders below were run against T9, Cyk3, Q07533 (assay: SPOT array). Details: median of control spots 1451.

In order of rising SPOT intensity:
1. AHFQPQRTAPKPPIS  0
2. IRMPSNPALPKKLLN  0

Each binder was assayed against T10, Hse1, P38753 (assay: SPOT array). Details: median of control spots 1727.

In order of rising SPOT intensity:
1. AHFQPQRTAPKPPIS  0
2. IRMPSNPALPKKLLN  16

The binders below were run against T11, Lsb3, P43603 (assay: SPOT array). Details: median of control spots 406.

In order of falling SPOT intensity:
1. IRMPSNPALPKKLLN  53
2. AHFQPQRTAPKPPIS  0

Each binder was assayed against T12, Sla1-2, P32790 (assay: SPOT array). Details: median of control spots 712.

In order of rising SPOT intensity:
1. AHFQPQRTAPKPPIS  0
2. IRMPSNPALPKKLLN  18

Each binder was assayed against Sho1, P40073 (assay: SPOT array). Details: median of control spots 1148.
Chain of Sho1, P40073 (P40073 287-367): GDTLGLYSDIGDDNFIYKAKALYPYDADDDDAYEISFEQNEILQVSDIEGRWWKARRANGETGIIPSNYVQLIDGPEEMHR

In order of falling SPOT intensity:
1. IRMPSNPALPKKLLN  79
2. AHFQPQRTAPKPPIS  1

These binders were tested against T13, Bzz1-2, P38822 (assay: SPOT array). Details: median of control spots 4538.

In order of falling SPOT intensity:
1. IRMPSNPALPKKLLN  2
2. AHFQPQRTAPKPPIS  0

Each binder was assayed against T14, Sla1-3, P32790 (assay: SPOT array). Details: median of control spots 5475.

In order of rising SPOT intensity:
1. IRMPSNPALPKKLLN  0
2. AHFQPQRTAPKPPIS  4

What follows are binders tested against T15, Fus1, P11710 (assay: SPOT array). Details: median of control spots 1200.

In order of rising SPOT intensity:
1. AHFQPQRTAPKPPIS  0
2. IRMPSNPALPKKLLN  0

These binders were tested against T16, Nbp2, Q12163 (assay: SPOT array). Details: median of control spots 357.

In order of falling SPOT intensity:
1. AHFQPQRTAPKPPIS  750
2. IRMPSNPALPKKLLN  15

Each binder was assayed against GST (assay: SPOT array). Details: median of control spots 978.

In order of falling SPOT intensity:
1. AHFQPQRTAPKPPIS  0
2. IRMPSNPALPKKLLN  0

The binders below were run against T17, Boi2, P39969 (assay: SPOT array). Details: median of control spots 1161.

In order of falling SPOT intensity:
1. IRMPSNPALPKKLLN  2
2. AHFQPQRTAPKPPIS  0

These binders were tested against Rvs167, P39743 (assay: SPOT array). Details: median of control spots 2707.
Chain of Rvs167, P39743 (P39743 419-482): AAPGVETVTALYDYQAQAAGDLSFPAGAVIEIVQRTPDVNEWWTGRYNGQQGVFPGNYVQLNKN

In order of falling SPOT intensity:
1. AHFQPQRTAPKPPIS  0
2. IRMPSNPALPKKLLN  0

Each binder was assayed against T18, Bud14, P27637 (assay: SPOT array). Details: median of control spots 956.

In order of rising SPOT intensity:
1. AHFQPQRTAPKPPIS  1
2. IRMPSNPALPKKLLN  1

What follows are binders tested against Bem1-1, P29366 (assay: SPOT array). Details: median of control spots 4282.
Chain of Bem1-1, P29366 (P29366 55-141): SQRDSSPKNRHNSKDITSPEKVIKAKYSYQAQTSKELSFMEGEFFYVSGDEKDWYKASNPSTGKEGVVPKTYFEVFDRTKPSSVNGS

In order of rising SPOT intensity:
1. AHFQPQRTAPKPPIS  0
2. IRMPSNPALPKKLLN  0

What follows are binders tested against T19, Pex13, P80667 (assay: SPOT array). Details: median of control spots 1341.

In order of rising SPOT intensity:
1. AHFQPQRTAPKPPIS  13
2. IRMPSNPALPKKLLN  352

What follows are binders tested against T20, Lsb1, P53281 (assay: SPOT array). Details: median of control spots 388.

In order of falling SPOT intensity:
1. IRMPSNPALPKKLLN  47
2. AHFQPQRTAPKPPIS  17

What follows are binders tested against T21, Pin3, Q06449 (assay: SPOT array). Details: median of control spots 2171.

In order of rising SPOT intensity:
1. AHFQPQRTAPKPPIS  5
2. IRMPSNPALPKKLLN  115
